Experimental data as given in patent US20210085784A1 (PROGASTRINE ET CANCERS S R L, published 2021).

T1: human progastrin (human, UniProt P01350 22-101)
T1 construct: also called hPG; PG
T1 sequence: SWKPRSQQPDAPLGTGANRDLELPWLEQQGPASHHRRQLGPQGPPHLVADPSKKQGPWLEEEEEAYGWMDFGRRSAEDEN

B1: mAb19 (antibody, V domains shown)
VH: DVQLQESGPGLVKPSQSLSLTCTVTGYSITSDYAWNWIRQFPGNKLEWMGYISFSGYTSYNPSLKSRISVTRDTSRNQFFLQLTSVTTEDTATYYCAREVNYGDSYHFDYWGQGTIVTVSS
VL: QLALTQSSSASFSLGASAKLTCTLSSQHRTYTIEWYQQQSLKPPKYVMEVKKDGSHSTGHGIPDRFSGSSSGADRYLSISNIQPEDEAIYICGVGDAIKGQSVFVFGGGTKVTVL
notes: Murine monoclonal antibody from a hybridoma, raised against hPG 1-14; also called 1B3B4F11
B2: mAb4 (antibody, V domains shown)
VH: QVQLQQSGAELMKPGASVKISCKATGYTFSSSWIEWLKQRPGHGLEWIGEFLPGSGSTDYNEKFKGKATFTADTSSDTAYMLLSSLTSEDSAVYYCATDGNYDWFAYWGQGTLVTVSA
VL: DLVMTQTPLSLPVSLGDQASISCRSSQSLVHSSGVTYLHWYLQKPGQSPKLLIYKVSNRFSGVPDRFSGSGSGTDFTLKISRVEAEDLGVYFCSQSTHVPPTFGSGTKLEIK
notes: Murine monoclonal antibody from a hybridoma, raised against hPG 1-14; also called 20D2C3G2
B3: mAb3 (antibody, V domains shown)
VH: EVQLQQSGTVLARPGASVKMSCKASGYIFTSYWVHWVKQRPGQGLEWIGGFYPGNSDSRYNQKFKGKATLTAVTSASTAYMDLSSLTNEDSAVYFCTRRDSPQYWGQGTTLTVSS
VL: DVLMTQTPLSLPVSLGDQASISCRSSQSIVHSNGNTYLEWYLQKPGQSPKLLIYKVSNRFSGVPDRFSGSGSGTDFTLKISRLEAEDLGVYYCFQGSHVPFTFGGGTKLEIK
notes: Murine monoclonal antibody from a hybridoma, raised against hPG 1-14; also called 6B5B11C10
B4: mAb16 (antibody, V domains shown)
VH: QVQLQQSGAELVKPGASVKLSCKASGYTFTSYYMYWVKQRPGQGLEWIGEINPSNGGTNFNEKFKSKATLTVDKSSSTAYMQLSSLTSEDSAVYYCTRGGYYPFDYWGQGTTLTVSS
VL: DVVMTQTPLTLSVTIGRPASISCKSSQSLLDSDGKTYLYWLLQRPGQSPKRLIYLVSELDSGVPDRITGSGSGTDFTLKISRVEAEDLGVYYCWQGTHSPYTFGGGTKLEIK
notes: Murine monoclonal antibody from a hybridoma, raised against hPG 1-14; also called 1E9D9B6
B5: mAb13 (antibody, V domains shown)
VH: EVQLVESGGGLVQPGGSLKLSCAASGFIFSSYGMSWVRQSPDRRLELVASINTFGDRTYYPDSVKGRFTISRDNAKNTLYLQMTSLKSEDTAIYYCARGTGTYWGQGTTLTVSS
VL: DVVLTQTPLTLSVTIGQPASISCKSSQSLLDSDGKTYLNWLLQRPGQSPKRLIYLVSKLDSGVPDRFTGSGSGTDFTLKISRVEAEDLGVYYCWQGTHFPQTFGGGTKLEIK
notes: Murine monoclonal antibody from a hybridoma, raised against hPG 55-80; also called 2C6C3C7

These binders were tested against T1, human progastrin (assay: epitope mapping, method not described).

Binder	binding result
B1	binds
B2	binds
B3	binds
B4	binds
B5	binds
